This test deals with intracellular product of the soybean Rps1b gene (soybean). The test can be described thus: cell-based or functional assay.

“mature Avr1b (lacking the secretory leader), Phytophthora sojae”: the Killing in presence of Rps1b (ratio of GUS spots) was 0.22.
